molecular target: recombinant human IL-6 (human, UniProt P05231 30-212); assay: SPR, IL-6 on CM5 chip, Fab lysate, 25 C
Sequence (P05231 30-212 limits assumed): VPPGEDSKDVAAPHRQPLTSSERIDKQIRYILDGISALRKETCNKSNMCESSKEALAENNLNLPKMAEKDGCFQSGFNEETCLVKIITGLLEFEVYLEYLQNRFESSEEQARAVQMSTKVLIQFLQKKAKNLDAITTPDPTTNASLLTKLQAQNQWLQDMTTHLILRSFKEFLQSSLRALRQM

Binder	koff [s⁻¹]
anti-IL-6 Fab, light chain S28W (Fab, V domains shown, see m39) VH: EVQLVESGGGLVQPGGSLRLSCAASGFTFSPFAMSWVRQAPGKGLEWVAKISPGGSWTYYSDTVTGRFTFSLDTSKSTAYLQMNSLRAEDTAVYYCARQLWGYYALDIWGQGTLVTVSS VL: DIQLTQSPSSLSASVGDRVTITCSASIWVSYMYWYQQKPGKAPKLLIYDMSNLASGVPSRFSGSGSGTDFTLTISSLQPEDFATYYCMQWSGYPYTFGQGTKVEIK	0.00398
anti-IL-6 Fab, light chain S51K (Fab, V domains shown, see m39) VH: EVQLVESGGGLVQPGGSLRLSCAASGFTFSPFAMSWVRQAPGKGLEWVAKISPGGSWTYYSDTVTGRFTFSLDTSKSTAYLQMNSLRAEDTAVYYCARQLWGYYALDIWGQGTLVTVSS VL: DIQLTQSPSSLSASVGDRVTITCSASISVSYMYWYQQKPGKAPKLLIYDMKNLASGVPSRFSGSGSGTDFTLTISSLQPEDFATYYCMQWSGYPYTFGQGTKVEIK	0.00461
anti-IL-6 Fab, light chain S55R (Fab, V domains shown, see m39) VH: EVQLVESGGGLVQPGGSLRLSCAASGFTFSPFAMSWVRQAPGKGLEWVAKISPGGSWTYYSDTVTGRFTFSLDTSKSTAYLQMNSLRAEDTAVYYCARQLWGYYALDIWGQGTLVTVSS VL: DIQLTQSPSSLSASVGDRVTITCSASISVSYMYWYQQKPGKAPKLLIYDMSNLARGVPSRFSGSGSGTDFTLTISSLQPEDFATYYCMQWSGYPYTFGQGTKVEIK	0.00526
anti-IL-6 Fab, light chain S51R (Fab, V domains shown, see m39) VH: EVQLVESGGGLVQPGGSLRLSCAASGFTFSPFAMSWVRQAPGKGLEWVAKISPGGSWTYYSDTVTGRFTFSLDTSKSTAYLQMNSLRAEDTAVYYCARQLWGYYALDIWGQGTLVTVSS VL: DIQLTQSPSSLSASVGDRVTITCSASISVSYMYWYQQKPGKAPKLLIYDMRNLASGVPSRFSGSGSGTDFTLTISSLQPEDFATYYCMQWSGYPYTFGQGTKVEIK	0.00467
anti-IL-6 Fab, light chain S55V (Fab, V domains shown, see m39) VH: EVQLVESGGGLVQPGGSLRLSCAASGFTFSPFAMSWVRQAPGKGLEWVAKISPGGSWTYYSDTVTGRFTFSLDTSKSTAYLQMNSLRAEDTAVYYCARQLWGYYALDIWGQGTLVTVSS VL: DIQLTQSPSSLSASVGDRVTITCSASISVSYMYWYQQKPGKAPKLLIYDMSNLAVGVPSRFSGSGSGTDFTLTISSLQPEDFATYYCMQWSGYPYTFGQGTKVEIK	0.00516
anti-IL-6 Fab, light chain S30G (Fab, V domains shown, see m39) VH: EVQLVESGGGLVQPGGSLRLSCAASGFTFSPFAMSWVRQAPGKGLEWVAKISPGGSWTYYSDTVTGRFTFSLDTSKSTAYLQMNSLRAEDTAVYYCARQLWGYYALDIWGQGTLVTVSS VL: DIQLTQSPSSLSASVGDRVTITCSASISVGYMYWYQQKPGKAPKLLIYDMSNLASGVPSRFSGSGSGTDFTLTISSLQPEDFATYYCMQWSGYPYTFGQGTKVEIK	0.00677
anti-IL-6 Fab, light chain S55W (Fab, V domains shown, see m39) VH: EVQLVESGGGLVQPGGSLRLSCAASGFTFSPFAMSWVRQAPGKGLEWVAKISPGGSWTYYSDTVTGRFTFSLDTSKSTAYLQMNSLRAEDTAVYYCARQLWGYYALDIWGQGTLVTVSS VL: DIQLTQSPSSLSASVGDRVTITCSASISVSYMYWYQQKPGKAPKLLIYDMSNLAWGVPSRFSGSGSGTDFTLTISSLQPEDFATYYCMQWSGYPYTFGQGTKVEIK	0.0051
anti-IL-6 Fab, light chain S30A (Fab, V domains shown, see m39) VH: EVQLVESGGGLVQPGGSLRLSCAASGFTFSPFAMSWVRQAPGKGLEWVAKISPGGSWTYYSDTVTGRFTFSLDTSKSTAYLQMNSLRAEDTAVYYCARQLWGYYALDIWGQGTLVTVSS VL: DIQLTQSPSSLSASVGDRVTITCSASISVAYMYWYQQKPGKAPKLLIYDMSNLASGVPSRFSGSGSGTDFTLTISSLQPEDFATYYCMQWSGYPYTFGQGTKVEIK	0.00654
anti-IL-6 Fab, light chain S55P (Fab, V domains shown, see m39) VH: EVQLVESGGGLVQPGGSLRLSCAASGFTFSPFAMSWVRQAPGKGLEWVAKISPGGSWTYYSDTVTGRFTFSLDTSKSTAYLQMNSLRAEDTAVYYCARQLWGYYALDIWGQGTLVTVSS VL: DIQLTQSPSSLSASVGDRVTITCSASISVSYMYWYQQKPGKAPKLLIYDMSNLAPGVPSRFSGSGSGTDFTLTISSLQPEDFATYYCMQWSGYPYTFGQGTKVEIK	0.0052
anti-IL-6 Fab, light chain S55L (Fab, V domains shown, see m39) VH: EVQLVESGGGLVQPGGSLRLSCAASGFTFSPFAMSWVRQAPGKGLEWVAKISPGGSWTYYSDTVTGRFTFSLDTSKSTAYLQMNSLRAEDTAVYYCARQLWGYYALDIWGQGTLVTVSS VL: DIQLTQSPSSLSASVGDRVTITCSASISVSYMYWYQQKPGKAPKLLIYDMSNLALGVPSRFSGSGSGTDFTLTISSLQPEDFATYYCMQWSGYPYTFGQGTKVEIK	0.00507
anti-IL-6 Fab, light chain S55I (Fab, V domains shown, see m39) VH: EVQLVESGGGLVQPGGSLRLSCAASGFTFSPFAMSWVRQAPGKGLEWVAKISPGGSWTYYSDTVTGRFTFSLDTSKSTAYLQMNSLRAEDTAVYYCARQLWGYYALDIWGQGTLVTVSS VL: DIQLTQSPSSLSASVGDRVTITCSASISVSYMYWYQQKPGKAPKLLIYDMSNLAIGVPSRFSGSGSGTDFTLTISSLQPEDFATYYCMQWSGYPYTFGQGTKVEIK	0.00505
anti-IL-6 Fab, light chain S51D (Fab, V domains shown, see m39) VH: EVQLVESGGGLVQPGGSLRLSCAASGFTFSPFAMSWVRQAPGKGLEWVAKISPGGSWTYYSDTVTGRFTFSLDTSKSTAYLQMNSLRAEDTAVYYCARQLWGYYALDIWGQGTLVTVSS VL: DIQLTQSPSSLSASVGDRVTITCSASISVSYMYWYQQKPGKAPKLLIYDMDNLASGVPSRFSGSGSGTDFTLTISSLQPEDFATYYCMQWSGYPYTFGQGTKVEIK	0.00466

Next, values leading:

koff [s⁻¹]	Binder
0.00478	anti-IL-6 Fab, light chain T96L (Fab, V domains shown, see m39) VH: EVQLVESGGGLVQPGGSLRLSCAASGFTFSPFAMSWVRQAPGKGLEWVAKISPGGSWTYYSDTVTGRFTFSLDTSKSTAYLQMNSLRAEDTAVYYCARQLWGYYALDIWGQGTLVTVSS VL: DIQLTQSPSSLSASVGDRVTITCSASISVSYMYWYQQKPGKAPKLLIYDMSNLASGVPSRFSGSGSGTDFTLTISSLQPEDFATYYCMQWSGYPYLFGQGTKVEIK
0.00504	anti-IL-6 Fab, light chain T96V (Fab, V domains shown, see m39) VH: EVQLVESGGGLVQPGGSLRLSCAASGFTFSPFAMSWVRQAPGKGLEWVAKISPGGSWTYYSDTVTGRFTFSLDTSKSTAYLQMNSLRAEDTAVYYCARQLWGYYALDIWGQGTLVTVSS VL: DIQLTQSPSSLSASVGDRVTITCSASISVSYMYWYQQKPGKAPKLLIYDMSNLASGVPSRFSGSGSGTDFTLTISSLQPEDFATYYCMQWSGYPYVFGQGTKVEIK
0.0051	anti-IL-6 Fab, light chain Y31F (Fab, V domains shown, see m39) VH: EVQLVESGGGLVQPGGSLRLSCAASGFTFSPFAMSWVRQAPGKGLEWVAKISPGGSWTYYSDTVTGRFTFSLDTSKSTAYLQMNSLRAEDTAVYYCARQLWGYYALDIWGQGTLVTVSS VL: DIQLTQSPSSLSASVGDRVTITCSASISVSFMYWYQQKPGKAPKLLIYDMSNLASGVPSRFSGSGSGTDFTLTISSLQPEDFATYYCMQWSGYPYTFGQGTKVEIK
0.00423	anti-IL-6 Fab, light chain T96I (Fab, V domains shown, see m39) VH: EVQLVESGGGLVQPGGSLRLSCAASGFTFSPFAMSWVRQAPGKGLEWVAKISPGGSWTYYSDTVTGRFTFSLDTSKSTAYLQMNSLRAEDTAVYYCARQLWGYYALDIWGQGTLVTVSS VL: DIQLTQSPSSLSASVGDRVTITCSASISVSYMYWYQQKPGKAPKLLIYDMSNLASGVPSRFSGSGSGTDFTLTISSLQPEDFATYYCMQWSGYPYIFGQGTKVEIK
0.00549	anti-IL-6 Fab, light chain S91K (Fab, V domains shown, see m39) VH: EVQLVESGGGLVQPGGSLRLSCAASGFTFSPFAMSWVRQAPGKGLEWVAKISPGGSWTYYSDTVTGRFTFSLDTSKSTAYLQMNSLRAEDTAVYYCARQLWGYYALDIWGQGTLVTVSS VL: DIQLTQSPSSLSASVGDRVTITCSASISVSYMYWYQQKPGKAPKLLIYDMSNLASGVPSRFSGSGSGTDFTLTISSLQPEDFATYYCMQWKGYPYTFGQGTKVEIK
0.00618	anti-IL-6 Fab, light chain Y33F (Fab, V domains shown, see m39) VH: EVQLVESGGGLVQPGGSLRLSCAASGFTFSPFAMSWVRQAPGKGLEWVAKISPGGSWTYYSDTVTGRFTFSLDTSKSTAYLQMNSLRAEDTAVYYCARQLWGYYALDIWGQGTLVTVSS VL: DIQLTQSPSSLSASVGDRVTITCSASISVSYMFWYQQKPGKAPKLLIYDMSNLASGVPSRFSGSGSGTDFTLTISSLQPEDFATYYCMQWSGYPYTFGQGTKVEIK
0.00559	anti-IL-6 Fab, light chain S91A (Fab, V domains shown, see m39) VH: EVQLVESGGGLVQPGGSLRLSCAASGFTFSPFAMSWVRQAPGKGLEWVAKISPGGSWTYYSDTVTGRFTFSLDTSKSTAYLQMNSLRAEDTAVYYCARQLWGYYALDIWGQGTLVTVSS VL: DIQLTQSPSSLSASVGDRVTITCSASISVSYMYWYQQKPGKAPKLLIYDMSNLASGVPSRFSGSGSGTDFTLTISSLQPEDFATYYCMQWAGYPYTFGQGTKVEIK
0.00543	anti-IL-6 Fab, light chain V29L (Fab, V domains shown, see m39) VH: EVQLVESGGGLVQPGGSLRLSCAASGFTFSPFAMSWVRQAPGKGLEWVAKISPGGSWTYYSDTVTGRFTFSLDTSKSTAYLQMNSLRAEDTAVYYCARQLWGYYALDIWGQGTLVTVSS VL: DIQLTQSPSSLSASVGDRVTITCSASISLSYMYWYQQKPGKAPKLLIYDMSNLASGVPSRFSGSGSGTDFTLTISSLQPEDFATYYCMQWSGYPYTFGQGTKVEIK
0.00508	anti-IL-6 Fab, light chain S55Y (Fab, V domains shown, see m39) VH: EVQLVESGGGLVQPGGSLRLSCAASGFTFSPFAMSWVRQAPGKGLEWVAKISPGGSWTYYSDTVTGRFTFSLDTSKSTAYLQMNSLRAEDTAVYYCARQLWGYYALDIWGQGTLVTVSS VL: DIQLTQSPSSLSASVGDRVTITCSASISVSYMYWYQQKPGKAPKLLIYDMSNLAYGVPSRFSGSGSGTDFTLTISSLQPEDFATYYCMQWSGYPYTFGQGTKVEIK
0.00511	anti-IL-6 Fab, light chain Y31G (Fab, V domains shown, see m39) VH: EVQLVESGGGLVQPGGSLRLSCAASGFTFSPFAMSWVRQAPGKGLEWVAKISPGGSWTYYSDTVTGRFTFSLDTSKSTAYLQMNSLRAEDTAVYYCARQLWGYYALDIWGQGTLVTVSS VL: DIQLTQSPSSLSASVGDRVTITCSASISVSGMYWYQQKPGKAPKLLIYDMSNLASGVPSRFSGSGSGTDFTLTISSLQPEDFATYYCMQWSGYPYTFGQGTKVEIK

Reference: patent US20240209076A1 (KODIAK SCIENCES, published 2024)
